For 29 molecules, relative binding ratio and IC50 results are on record in US20040018971A1 (published 2004).

As usually defined, the IC50 is the concentration that inhibits the measured activity by half. Low values mean greater potency, high ones weaker potency.

In assay [1] the target is HLA-DR7 (DRB1*0701), purified HLA class II molecule (human). Kind of assay: competition with 125I-labelled probe peptide, purified HLA-DR.
Assay [2] deals with HLA-DR1 (DRB1*0101), purified HLA class II molecule (human). Described as above.
The target in assay [3] is HLA-DR4w4 (DRB1*0401), purified HLA class II molecule (human). The description is as above.
Assay [4] addresses T1, HLA-A*0301 (purified HLA class I molecule) (human).
T1 construct: also called A3
Kind of assay: inhibition of 125I probe peptide binding to purified HLA; ratio to standard peptide.

The target of assay [5] is HLA-A*6801 (purified HLA class I molecule) (human). The description is as above.
The target in assay [6] is HLA-A*3301 (purified HLA class I molecule) (human). The assay is described as above.
Assay [7] addresses HLA-A*1101 (purified HLA class I molecule) (human). The assay is described as above.
Assay [8] concerns the target HLA-A*3101 (purified HLA class I molecule) (human). Described as above.
For assay [9], the target named is T2, HLA-A*0201 (human).
T2 construct: also called HLA-A2.1
The assay can be described thus: competition with 125I-labelled probe peptide for purified HLA, gel filtration. For orientation: In gel filtration, larger molecules generally elute earlier.

Assay [10] has as its target HLA-A*0206 (human). The description is as above.
Assay [11] addresses HLA-A*0203 (human). The description is as above.
Assay [12] concerns the target HLA-A*0202 (human). The description is as above.
Assay [13] has as its target HLA-A*6802 (human). Described as above.
The target of assay [14] is HLA-A*6801 (human). Kind of assay: competition with 125I-labelled standard peptide for purified HLA; gel filtration.
Assay [15] deals with T3, HLA-DR7 (DRB1*0701) (human).
T3 construct: Purified HLA class II molecule
Kind of assay: competition with 125I-labelled probe peptide on purified HLA-DR, gel filtration; IC50 of standard peptide / IC50 of test peptide.

Assay [16] deals with T4, HLA-DR4w4 (DRB1*0401) (human).
T4 construct: Purified HLA class II molecule
Described as above.

The target of assay [17] is HLA-DR1 (DRB1*0101) (human). The assay is described as above.
For assay [18], the target named is HLA-DR3 (DRB1*0301), purified HLA class II molecule (human). The assay can be described thus: competition with 125I-labelled probe peptide, purified HLA-DR.
In assay [19] the target is T5, HLA-DR3 (DRB1*0301) (human).
T5 construct: Purified HLA class II molecule
Kind of assay: competition with 125I-labelled probe peptide on purified HLA-DR, gel filtration; IC50 of standard peptide / IC50 of test peptide.

For assay [20], the target named is T6, HLA-DRB1*0701 (human).
T6 construct: also called DR7
Kind of assay: competition with 125I-labeled standard peptide, purified HLA-DR, gel filtration.

For assay [21], the target named is T7, HLA-DRB1*0401 (human).
T7 construct: also called DR4w4
The assay is described as above.

The target in assay [22] is T8, HLA-DRB1*0101 (human).
T8 construct: also called DR1
The assay is described as above.

For assay [23], the target named is HLA-A*6802 (human). The assay can be described thus: competition with 125I probe peptide for purified HLA.
Assay [24] has as its target T9, HLA-A*0201 (human).
T9 construct: also called HLA-A2.1
The assay is described as above.

The target in assay [25] is HLA-A*0206 (human). The assay is described as above.
The target of assay [26] is HLA-A*0202 (human). Described as above.
The target in assay [27] is HLA-A*0203 (human). The assay is described as above.

Where no end group is shown, it is not given here. [ ]: non-standard residue; d: D form. Abu = CC[C@H](N)C(=O)O

VEPLTPSGAMPNQAQ (also called Her2/neu.697) [HER2/neu DR supermotif exemplary 15-mer VEPLTPSGAMPNQAQ (position 697)]: the figures for the relative binding ratio in assay [1], in assay [2] and in assay [3] were -0.0011 ratio (IC50 standard / IC50 test), -0.0008 ratio (IC50 standard / IC50 test) and -0.0025 ratio (IC50 standard / IC50 test), respectively.
CVNCSQFLR (also called Her2/neu.528) [HER2/neu peptide, position 528, 9 amino acids]: the relative binding ratio is 0.0015 ratio (IC50 standard / IC50 test) in [4]; 0.44 ratio (IC50 standard / IC50 test) in assay [5]; 0.58 ratio (IC50 standard / IC50 test) in assay [6]; 0.031 ratio (IC50 standard / IC50 test) in [7]; 0.53 ratio (IC50 standard / IC50 test) in [8].
With VLIQRNPQV [Her2/neu.153V9], the IC50 in [9] was found to be 0.055 µM; in [10], 0.385 µM; in assay [11], 0.135 µM; in assay [12], 0.768 µM.
For the molecule SLISAVVGV [Her2/neu.653.L2V9], the IC50 in assay [9] stood at 0.0071 µM; in assay [10], 0.02 µM; in assay [13], 0.11 µM; in assay [11] it was 0.016 µM; in assay [12], 0.01 µM.
As to GTQRCEKCSK (also called Her2/neu.327 (10-mer)) [HER2/neu peptide, position 327, 10 amino acids], the relative binding ratio in [4] is 0.021 ratio (IC50 standard / IC50 test); in [5], 0.01 ratio (IC50 standard / IC50 test); in assay [6], 0.0012 ratio (IC50 standard / IC50 test); in [7], 0.61 ratio (IC50 standard / IC50 test); in assay [8], 0.014 ratio (IC50 standard / IC50 test).
On the same counts, the results for CVARCPSGVK (also called Her2/neu.596 (10-mer)) [HER2/neu peptide, position 596, 10 amino acids] are 0.022 ratio (IC50 standard / IC50 test), 0.0093 ratio (IC50 standard / IC50 test), 0.0064 ratio (IC50 standard / IC50 test), 0.0042 ratio (IC50 standard / IC50 test) and 0.0008 ratio (IC50 standard / IC50 test).
The corresponding values for DLSYMPIWK (also called Her2/neu.607 (9-mer)) [HER2/neu peptide, position 607, 9 amino acids] are 0.0005 ratio (IC50 standard / IC50 test), 0.031 ratio (IC50 standard / IC50 test), 0.088 ratio (IC50 standard / IC50 test), 0.01 ratio (IC50 standard / IC50 test) and 0.0002 ratio (IC50 standard / IC50 test).
On to MVLESILRR [Her2/neu.889.V2], for which the IC50 in assay [14] was 0.022 µM.
Regarding GTDMKLRLPASPETH (also called Her2/neu.28) [HER2/neu peptide GTDMKLRLPASPETH (position 28)], the results for the relative binding ratio in assay [15], in assay [16] and in assay [17] were -0.0013 ratio, -0.0025 ratio and 0.001 ratio, respectively.
Regarding YLIMVK[Abu]WMV (also called YLIMVKBWMV) [Her2/neu.952L2B7V10], the IC50 was determined as 0.0072 µM in assay [9]; 0.011 µM in assay [10]; 0.851 µM in assay [13]; 0.077 µM in assay [11]; 0.066 µM in [12].
With TAPLQPEQLQVFETL (also called Her2/neu.389) [HER2/neu DR supermotif exemplary 15-mer TAPLQPEQLQVFETL (position 389)], in [18], the relative binding ratio is 0.0023 ratio (IC50 standard / IC50 test).
For the molecule KTFGSLAFV [Her2/neu.369T2V9], the IC50 in [9] is 0.035 µM; in assay [13], 0.017 µM; in [11] it was 1.01 µM; in assay [12], 0.013 µM.
In the case of FVVIQNEDLGPASPL (also called Her2/neu.986) [HER2/neu peptide FVVIQNEDLGPASPL (position 986)], the relative binding ratio in assay [19] is -0.0025 ratio.
Still for that read-out and setting: to DLTLGLEPSEEEAPR (also called Her2/neu.1058) [HER2/neu peptide DLTLGLEPSEEEAPR (position 1058)] belongs -0.0025 ratio.
In the case of IKVLRENTSPKANKE (also called Her2/neu.752) [HER2/neu peptide IKVLRENTSPKANKE (position 752)], the relative binding ratio in [15] is -0.0011 ratio; in [16] it was -0.0032 ratio; in [17] it was -0.0005 ratio.

B1: HER2/neu DR supermotif exemplary peptide QGFFCPDPAPGAGGM (position 1028) (peptide)
peptide: QGFFCPDPAPGAGGM
notes: synthetic 15-mer; also called Her2/neu.1028
Regarding B1, the values for the relative binding ratio in assay [20], in [21] and in [22] were -0.0011 ratio (standard IC50 / test IC50), 0.023 ratio (standard IC50 / test IC50) and -0.0005 ratio (standard IC50 / test IC50), respectively.

B2: HER2/neu DR supermotif exemplary peptide PSTFKGTPTAENPEY (position 1234) (peptide)
peptide: PSTFKGTPTAENPEY
notes: synthetic 15-mer; also called Her2/neu.1234
As to B2, the relative binding ratio was -0.0011 ratio (standard IC50 / test IC50) in assay [20], -0.0032 ratio (standard IC50 / test IC50) in assay [21] and -0.0005 ratio (standard IC50 / test IC50) in [22].
Turning to AIKVLRENTSPKANK (also called Her2/neu.751) [HER2/neu peptide AIKVLRENTSPKANK (position 751)], the relative binding ratio in [19] came to 0.0075 ratio.
As for VCPLHNQEVTAEDGT (also called Her2/neu.314) [HER2/neu DR supermotif exemplary 15-mer VCPLHNQEVTAEDGT (position 314)], the relative binding ratio is -0.0013 ratio (IC50 standard / IC50 test) in assay [1], -0.0004 ratio (IC50 standard / IC50 test) in assay [2] and -0.0025 ratio (IC50 standard / IC50 test) in [3].
For VHTVPWDQLFRNPHQ (also called Her2/neu.477) [HER2/neu DR supermotif exemplary 15-mer VHTVPWDQLFRNPHQ (position 477)], the relative binding ratio in [18] is 0.022 ratio (IC50 standard / IC50 test).

B3: HER2/neu DR supermotif exemplary peptide ITDFGLARLLDIDET (position 861) (peptide)
peptide: ITDFGLARLLDIDET
notes: synthetic 15-mer; also called Her2/neu.861
In the case of B3, the relative binding ratio in [20] is -0.0011 ratio (standard IC50 / test IC50); in assay [21], -0.0032 ratio (standard IC50 / test IC50); in [22], 0.0048 ratio (standard IC50 / test IC50).
As for VVGILLVVVLGVVFG (also called Her2/neu.658) [HER2/neu DR supermotif exemplary 15-mer VVGILLVVVLGVVFG (position 658)], the relative binding ratio in assay [1] is -0.0013 ratio (IC50 standard / IC50 test); in assay [2], -0.0004 ratio (IC50 standard / IC50 test); in assay [3] it was -0.0025 ratio (IC50 standard / IC50 test).
For the molecule RSLLEDDDMGDLVDA (also called Her2/neu.1006) [HER2/neu DR supermotif exemplary 15-mer RSLLEDDDMGDLVDA (position 1006)], the relative binding ratio in assay [18] was 0.008 ratio (IC50 standard / IC50 test).
AT[Abu]RWGLLV [Her2/neu.5.T2B3V9 ATBRWGLLV]: the IC50 in assay [23] was 1.74 µM; in assay [24], 16.7 µM; in [25] it was 2.18 µM; in assay [26], 0.215 µM.
For the molecule AV[Abu]RWGLLV [Her2/neu.5V2B3V9 AVBRWGLLV], the IC50 in [23] was 4.71 µM; in assay [24], 10 µM; in assay [25] it was 2.18 µM; in assay [26] it was 0.215 µM; in [27] it was 0.141 µM.
Consider AMBRWGLLV (B at position 3 = alpha-amino butyric acid) [Her2/neu.5M2B3V9 AMBRWGLLV], for which the IC50 in [24] came to 0.036 µM; in assay [25], 0.726 µM; in assay [26] it was 0.473 µM; in assay [27] it was 0.016 µM.
As for YLIMVKCWMV [Her2/neu.952L2V10], the IC50 is 0.013 µM in [9], 0.018 µM in assay [10], 0.084 µM in assay [13] and 0.056 µM in assay [12].
With TQLFEDNYALAVLDN (also called Her2/neu.105) [HER2/neu DR supermotif exemplary 15-mer TQLFEDNYALAVLDN (position 105)], the values for the relative binding ratio in assay [1], in assay [2] and in [3] were 0.016 ratio (IC50 standard / IC50 test), 0.053 ratio (IC50 standard / IC50 test) and -0.0025 ratio (IC50 standard / IC50 test), respectively.

B4: HER2/neu DR supermotif exemplary peptide LLVVVLGVVFGILIK (position 662) (peptide)
peptide: LLVVVLGVVFGILIK
notes: synthetic 15-mer; also called Her2/neu.662
B4: the relative binding ratio in [20] is 0.0019 ratio (standard IC50 / test IC50); in assay [21] it was -0.0025 ratio (standard IC50 / test IC50); in assay [22] it was -0.0008 ratio (standard IC50 / test IC50).
